In patent publication US20100129294A1:

Biological target: Aβ40 fibrils formed from a synthetic Aβ40 peptide (human)
Assay: cell-based or functional assay

“nattokinase (from UniProt P35835 107-381) (enzyme)” showed a rate of Aβ fibril degradation (37 C, pH 7.4, ThT binding assay) of 0.015 s⁻¹.
